“Also recorded” adds a separate entry of the source.
Assays:
Assay type in all cases: cell-based, mouse
[1] = system: mESCs-derived NMPs / NPCs; test: Bulk RNA-Seq differential expression and qRT-PCR after RA or RA+BMP4 treatment; conditions: AGN193109 added in 10 molar excess with the RA
Experimental: Bulk-RNA sequencing and data processing: Total cell lysate was obtained in buffer RLT (Qiagen) at different time points from three independent differentiations (biological replicates) conducted parallelly. RNA extraction was performed using RNeasy mini kit (Qiagen) and the quality was determined using Agilent Technologies 2100 Bioanalyzer and only samples with a RIN score >8.0 were sequenced. Stranded libraries were constructed using Universal plus mRNA sequencing kit (NuGEN) and sequenced onto 2 lanes of NovaseqS1 to generate 30 million reads/sample. Obtained reads were aligned to the latest mouse reference genome (mm10) using the STAR spliced read aligner. Pearson correlation and principal component analysis (PCA) was performed to determine the similarities among the samples and replicates. Differentially expressed genes were identified using DESeq and EdgeR package on R platform. The candidate genes were selected using cutoff false discovery rate (FDR <0.05) and log fold change (>2). Differentially expressed gene lists were further subjected to Enrichr, Metascape (Zhou et al., 2019) and DAVID functional annotation tools to identify enriched gene ontology (GO) categories.
(§1) Quantitative (a) RT-PCR analysis: RNA was isolated with RNeasy Mini Kit (Qiagen, cat no. 74104), and converted to cDNA using Superscript IV First Strand Synthesis kit (Thermo Fisher Scientific). qRT-PCR was performed using SYBR Green PCR Master Mix (Applied Biosystems) on Roche 480 Lightcycler (Roche). The relative fold expression was calculated using 2-AACt method of comparing the expression of the target gene with that of the housekeeping gene glyceraldehyde 3-phosphate dehydrogenase (Gapdh). All experiments were repeated at least 2-3 times (technical replicates) from at least two independent differentiations (biological replicates), and data is represented as mean±SEM.
We took advantage of the directed differentiation protocols to investigate the unresolved mechanisms by which RA and BMP direct dI fate specification. To further validate the use of a stem cell model, we first assessed the genetic basis of the fate decisions mediated by RA signaling. During the 24 hr pulse of RA at day 3, Pax3 levels gradually increase, while T expression concomitantly declines (FIG. 12A). […] To identify the transcriptional changes occurring during this first commitment step, we performed bulk RNA-Seq at day 3 (NMP state), day 3.25 (early transcriptional response to RA) and day 4 (dP state1) (FIG. 11B).
We hypothesized that the addition of BMP4 to NPCs in dP state1, directs them to a more dorsal dP state, i.e. dP state2 (FIG. 11A). To define the transcriptional changes occurring after BMP4 addition, we performed bulk RNA-Seq at day 4 (dP state1), day 4.25 (early transcriptional response to RA+BMP4) and at day 5 (dP state2) (FIG. 4A). […] 78 genes, out of 411, were common between both time points (FIGS. 4B, 13B). Focusing on these common genes, we identified enriched functional processes using GO analyses. The GO terms included the BMP signaling pathway (FIG. 4C, Table 3), confirming that the analysis identified BMP responsive genes.

Wnt/β-catenin signaling = test: Inhibition of Wnt/β-catenin signaling during dI differentiation (IHC and RT-qPCR at day 9)
Experimental: (§2) The mouse ESC line, MM13, was routinely maintained in ES cell media (DMEM+20% FBS) with 100u/ml of mouse leukocyte inducing factor (LIF). […] To prepare cells for the differentiation, ESC colonies were dissociated with 0.25% trypsin and plated on gelatin coated plates at 1:10 dilution to reduce MEF transfer. Cells cultured on gelatin coated plates and allowed to proliferate for 1-2 days. To initiate differentiation, cells were plated on 0.1% gelatin coated 24-well CellBIND dishes (Corning) at 20,000 cells/ml density in 0.5 ml/well N2/B27 medium that contains 10 ng/ml basic fibroblast growth factor (bFGF). The N2/B27 medium contains 1:1 portions of Advanced Dulbecco's modified Eagle Media (DMEM) F12 (Hyclone) and Neurobasal media (Thermo Fisher Scientific) supplemented with 0.5×N2, 1×B27 supplement (with Vitamin A), 2 mM L-glutamine, 0.1 mM 2-mercaptoethanol (ME), and 1% BSA. On day 1, small colonies of cells can be observed attached to the bottom of the wells. On day 2, cells were supplemented with 10 ng/ml bFGF and 5 μM CHIR99021 for 24 hours to induce a neuromesodermal identity (Gouti et al., 2014). On day 3, media was changed as follows: for protocol 1, cells were exposed to 100 nM RA for 48 hrs. For protocol 2, 10 ng/ml human recombinant BMP4 (Thermo Fisher Scientific) was added concomitantly with 100 nM RA (RA+BMP4) for 48 hrs. For protocol 3, cells were exposed to 100 nM RA for 24 hrs, followed by a pulse of RA+BMP4 for another 24 hours. To induce terminal differentiation in all three conditions, the medium containing growth factors was replaced with basic N2/B27 medium at day 5, and cell allowed to differentiate to day 9. At the end of the differentiation, the cultures were fixed for immunohistochemical analysis or lysed to obtain RNA for RNA-Seq or quantitative reverse transcriptase PCR analysis.
Immunohistochemistry: For 2d differentiations, adherent cultures were first washed with 1×PBS and fixed with fresh cold 4% PFA for 10 minutes in the well. Following fixation, cultures were washed twice with 1×PBS to remove any remaining PFA. Cells were blocked with 1×PBS with 1% heat inactivated horse serum for 1 hour and primary antibodies are added in the blocking solution for an overnight incubation at 4C. Following washes, species appropriate secondary antibodies (Jackson Immuno Research Laboratories) were added in 1× PBT (PBS+0.1% […]) for 1 hr. The cultures were then washed with 1× PBT to remove traces of secondary antibodies and counterstained with DAPI to stain nuclei. Plates were then imaged on Zeiss LSM800 inverted confocal microscope at 10× magnification.
as §1
To assess the role of canonical Wnt signaling in dI fate specification, we added endo-IWR1 (IWR1e), a small molecule inhibitor which blocks p-catenin function (Chen et al., 2009) to dPs from day 4-6 (FIG. 5A). By day 9, the RA+BMP4 condition robustly induces dlis-dI3s (FIG. 5F-51, 5N-5P).

[2] = system: mESCs derived spinal NPCs; test: Sufficiency of Wnt ligands or CHIR for dI fates (RT-qPCR at day 9); conditions: for identity of the BMP4-mediated dI fates (Lhx2, Foxd3, IsI2): RA+BMP4 protocol, Wnts 100 ng/ml or CHIR 5 μM for 24 hrs at day 5; for induction of BMP4 dependent dI fates (Lhx2, Foxd3, IsI1): added with RA at day 4 for 24 hrs, Wnts 100 ng/ml, CHIR 5 μM
Experimental: as §2, §1
We assessed these models, first by determining the effect of canonical Wnts (Wnt1, Wnt2, and Wnt3a), a non-canonical Wnt (Wnt9b) and a small molecule Wnt agonist (CHIR99021) on dI identity in the RA±BMP4 protocols. When Wnts were added in combination with RA, they were unable to induce the dorsal-most dIs by day 9 (FIG. 14A). […] Thus, Wnts are not sufficient to direct dI fate identity.

[3] = inhibitor added to RA+BMP4 (protocol 3) from day 4, 48 hours, day 9

Molecule	identity of the BMP4-mediated dI fates (Lhx2, Foxd3, IsI2) [2]	induction of BMP4 dependent dI fates (Lhx2, Foxd3, IsI1) [2]	also measured
Cc1ccc(C2=CCC(C)(C)c3ccc(C#Cc4ccc(C(=O)O)cc4)cc32)cc1 [AGN193109]	–	–	upregulation of the RA-induced genes [1]: not upregulated
O=C(Nc1cccc2cccnc12)c1ccc(N2C(=O)[C@@H]3[C@H](C2=O)[C@@H]2C=C[C@H]3C2)cc1 [IWR1e]	–	–	dI1 and dI2 differentiation (Wnt/β-catenin signaling; [3]): loss of dI1s and dI2s; also recorded: dramatic reduction in the dI1 and dI2 populations; also recorded: most strongly suppresses the differentiation of the BMP4-dependent dI1/dI2s; dI3 differentiation (Wnt/β-catenin signaling; [3]): dI3 differentiation was less affected; also recorded: modest increase in dI3s; also recorded: more modest effect on dI3s; dI4, dI5, dI6 fates (Wnt/β-catenin signaling; [3]): no suppression of Pax2+dI4/dI6 and Lmx1b+dI5 fates; also recorded: concomitant increases in dI4, dI5 and dI6s; also recorded: increase in the expression of dI4-dI6 specific genes; dP markers Pax3, Pax7, Olig3 (Wnt/β-catenin signaling; inhibitor added to RA+BMP4 condition): did not erode Pax3+pan-dorsal identity or Pax7 expression, but nevertheless did suppress Olig3; also recorded: prevents both the suppression of Pax7+dPs and induction of Olig3+dPs
Wnt2: human recombinant Wnt2, canonical Wnt (protein, UniProt P09544 26-360, looked up) Protein Wnt-2: SWWYMRATGGSSRVMCDNVPGLVSSQRQLCHRHPDVMRAISQGVAEWTAECQHQFRQHRWNCNTLDRDHSLFGRVLLRSSRESAFVYAISSAGVVFAITRACSQGEVKSCSCDPKKMGSAKDSKGIFDWGGCSDNIDYGIKFARAFVDAKERKGKDARALMNLHNNRAGRKAVKRFLKQECKCHGVSGSCTLRTCWLAMADFRKTGDYLWRKYNGAIQVVMNQDGTGFTVANERFKKPTKNDLVYFENSPDYCIRDREAGSLGTAGRVCNLTSRGMDSCEVMCCGRGYDTSHVTRMTKCGCKFHWCCAVRCQDCLEALDVHTCKAPKNADWTTAT	no significant effect	neither canonical Wnts (Wnt1, Wnt2, Wnt3a, Wnt4, all at 100 ng/ml) nor a non-canonical Wnt ligand (Wnt9b) induce the BMP4 dependent dI fates	–
Wnt4: mouse recombinant Wnt4 (protein, UniProt P22724 23-351, looked up) Protein Wnt-4: SNWLYLAKLSSVGSISEEETCEKLKGLIQRQVQMCKRNLEVMDSVRRGAQLAIEECQYQFRNRRWNCSTLDSLPVFGKVVTQGTREAAFVYAISSAGVAFAVTRACSSGELEKCGCDRTVHGVSPQGFQWSGCSDNIAYGVAFSQSFVDVRERSKGASSSRALMNLHNNEAGRKAILTHMRVECKCHGVSGSCEVKTCWRAVPPFRQVGHALKEKFDGATEVEPRRVGSSRALVPRNAQFKPHTDEDLVYLEPSPDFCEQDIRSGVLGTRGRTCNKTSKAIDGCELLCCGRGFHTAQVELAERCGCRFHWCCFVKCRQCQRLVEMHTCR	no significant effect	neither canonical Wnts (Wnt1, Wnt2, Wnt3a, Wnt4, all at 100 ng/ml) nor a non-canonical Wnt ligand (Wnt9b) induce the BMP4 dependent dI fates	–
Wnt1: human recombinant Wnt1, canonical Wnt (protein, UniProt P04628 28-370, looked up) Proto-oncogene Wnt-1: ANSSGRWWGIVNVASSTNLLTDSKSLQLVLEPSLQLLSRKQRRLIRQNPGILHSVSGGLQSAVRECKWQFRNRRWNCPTAPGPHLFGKIVNRGCRETAFIFAITSAGVTHSVARSCSEGSIESCTCDYRRRGPGGPDWHWGGCSDNIDFGRLFGREFVDSGEKGRDLRFLMNLHNNEAGRTTVFSEMRQECKCHGMSGSCTVRTCWMRLPTLRAVGDVLRDRFDGASRVLYGNRGSNRASRAELLRLEPEDPAHKPPSPHDLVYFEKSPNFCTYSGRLGTAGTAGRACNSSSPALDGCELLCCGRGHRTRTQRVTERCNCTFHWCCHVSCRNCTHTRVLHECL	no significant effect	neither canonical Wnts (Wnt1, Wnt2, Wnt3a, Wnt4, all at 100 ng/ml) nor a non-canonical Wnt ligand (Wnt9b) induce the BMP4 dependent dI fates	–
Wnt3a: human recombinant Wnt3a, canonical Wnt (protein, UniProt P56704 19-352, looked up) Protein Wnt-3a: SYPIWWSLAVGPQYSSLGSQPILCASIPGLVPKQLRFCRNYVEIMPSVAEGIKIGIQECQHQFRGRRWNCTTVHDSLAIFGPVLDKATRESAFVHAIASAGVAFAVTRSCAEGTAAICGCSSRHQGSPGKGWKWGGCSEDIEFGGMVSREFADARENRPDARSAMNRHNNEAGRQAIASHMHLKCKCHGLSGSCEVKTCWWSQPDFRAIGDFLKDKYDSASEMVVEKHRESRGWVETLRPRYTYFKVPTERDLVYYEASPNFCEPNPETGSFGTRDRTCNVSSHGIDGCDLLCCGRGHNARAERRREKCRCVFHWCCYVSCQECTRVYDVHTCK	no significant effect	neither canonical Wnts (Wnt1, Wnt2, Wnt3a, Wnt4, all at 100 ng/ml) nor a non-canonical Wnt ligand (Wnt9b) induce the BMP4 dependent dI fates	–
Wnt9b: mouse recombinant Wnt9b, non-canonical Wnt ligand (protein, UniProt O35468 24-359, looked up) Protein Wnt-9b: AAYFGLTGREVLTPFPGLGTAAAPAQAGAHLKQCDLLKLSRRQKQLCRREPGLAETLRDAAHLGLLECQFQFRQERWNCSLEGRTGLLQRGFKETAFLYAVSAAALTHALARACSAGRMERCTCDDSPGLESRQAWQWGVCGDNLKYSTKFLSNFLGPKRGSKDLRARADAHNTHVGIKAVKSGLRTTCKCHGVSGSCAVRTCWKQLSPFRETGQVLKLRYDTAVKVSSATNEALGRLELWAPAKPGGPAKGLAPRPGDLVYMEDSPSFCRPSKYSPGTAGRVCSRDSSCSSLCCGRGYDTQSRMVVFSCHCQVQWCCYVECQQCAQQELVYTCKR	no significant effect	neither canonical Wnts (Wnt1, Wnt2, Wnt3a, Wnt4, all at 100 ng/ml) nor a non-canonical Wnt ligand (Wnt9b) induce the BMP4 dependent dI fates	–

Reference: US20260275280A1, “DIRECTED DIFFERENTIATION PROTOCOLS TO DERIVE BONE FIDE SPINAL SENSORY INTERNEURONS” (THE REGENTS OF THE UNIVERSITY OF CALIFORNIA, priority 2022, published 2026)
